Test results: patent US20100297160A1 (MEDICAL COLLEGE OF GEORGIA RESEARCH INSTITUTE, published 2010)

Molecular target: human amyloid beta 42 (Aβ42) (human)
Assay: co-incubation of equimolar peptides for one month at 37 C, dialysis, 10 kDa filter concentration, SDS gel
Experimental: Various means were studied to enhance the immune potential of amyloid peptides. One such approach was derived from experiments with samples of human plasma and brain tissues having a complex of peptides that expressed epitopes for both human Aβ peptide and human RAGE. This involved the incubation of equimolar amounts of Aβ and an immunogenic fragment of RAGE for one month in sterile water at 37° C.
After incubation, the solution was dialyzed to remove unused products. The dialyzed solution was then concentrated in a centrifugation filter with a 10,000 molecular weight cutoff. […] The concentrated complex was dissolved in water and administered orally to rats on three occasions with two weeks between administrations. Two weeks after the last administration plasma samples were obtained for the determination of Aβ or RAGE titers.

Chain of human amyloid beta 42 (Aβ42) (human) (peptide, as listed by the source): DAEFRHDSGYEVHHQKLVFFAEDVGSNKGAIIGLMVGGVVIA

binding result: binds
Binder: AQNITARIGEPLVLKCKGAPKKPPQRLEWKLN (also called RAGE fragment) [immunogenic fragment of RAGE, amino acids 23 to 54 of human RAGE (RAGE23-54)]
